Reference: the DeepSol protein solubility set

Assay: soluble on expression in E. coli; label from the status in PepcDB or PDB records

Soluble on expression in E. coli, not soluble:
MGSDKIHHHHHHMQKIFDAHLHLWDLEKIPISWIKDDEKLEQNYDFFRMKQEYKEFEFIGAMYVEVNSDDLEKEALFALEQKKLHNLLFCLADFKHKEELSSFREVMHTSKKGAKRLFEADFEEKIEILKTFNIPFEACIKNEELGFLEKFLSKNPNLKVVLNHLGSPKINRLNEYKKDLSFLKKFQNLYIKLSIPDGFSQETPKEFIFELFAFLKENFSENKFIFGSNYPVAKITPAKWAKLIIESKIFDDLDKIFYKNALLIYKGG, MGSDKIHHHHHHMQKTLNTKKANLAMERAGLTQTAVAESLAVSKEAVSQWLSSKSFPRPNKLLQLGKLLGLPFDELVIKEDPFTPKVAFRKKAGTKTKDHHIEKAQEMGRFLRHLVAYLPFDTLEMPPVLKSPSCEYDYLCKVTAKVREDINVGTAECIDFSHLIRRFSELQAVVVPVMWGVKQRHENAVHIHLPDSQSTWVYLNLDTNIHDFKFWMAHELGHCLSPSLEGDNAEDFADAFAATLLYPNELAEKAYTSINAQPSPAAKIAHVVDLADQFTISPYTVLGQANKYALSTGRNEIKLSNSFHGAVTNFNKRYKNLSEALFGDAELDEHGKPSAKEYINKAETAFETPFFELLRKYLKEHDKGPGFVQTVLDMPLLDARSIHTELT, MGSDKIHHHHHHMQLDKIIAQNIVKRAMNIIGCSVNVMDHHGIIIASGNPARLNQLHTGAVLALRQNRMVEVDENLAEKWNFDAHPGINVPIQYLGNNIGVIGISGVPEQVKPYAELVKMTAELIIEQHILLEKESWNRRYKEEFILQLVKGNLSLAEIQQQAAFFSFALDIPRVVIIIKLLHPNADSLQQLVGYLEQPQFEQDVAILSLDQIIILQPFNIFAQFGKQLKKLLPKDYSQQDYKIAIGAQLECPAGEQLHLSYRSALSTLQYGLKHYPRKTLYFFEQYRLPVLLAGIADSWQAEELLKPLKALFSEENALLFKTLQQYFLSNCDLVLTAQKLFIHPNTLRYRLAKIEQITALSFNKIEDRFSLYLSTVLI, MGSDKIHHHHHHMQLHLTDDRFNTDPYWTERIKSTFACPPKEVVSMFDQNGYDLTKLEQLYAVANGAETTKHRNSSHITLRQDWFTADDTEYGPHINHAYMFERKGYSGDALAQLEAWSYYRPHFHKLIAMRPKWGLDFSIDYCDREGNVFELLHWEYDGFDHNEVADKKEKMDEFLVNQDWDERARTMLERKNEWHKLGFFEQSEWKTEFFGIEKERFKMVLWK, MGSDKIHHHHHHMQLLHTPAAISISFDDPNLISTAGLVPTMALAEDRLTVPTDKGANPGAKITTLIAGMVAGADSIDDIDALRHGGMHRLFDWIYAPSTLGSFLRAFTFGHVRQLDAVASRFLVGLATQAPALVPVDASTSDYVFIDVDDTIIKVHGHQKQGAGFGYSGIRGLNALLATVTTPESAPVVVAQRLRKGSCGSPRGAGRLIADAVATTRRLPGMEDEKILLRADSAFYGHPSISAAIKAGADVSVTVRMTPNVKKAIAQVPDDAWQTIKYTNAIFDEDTGRWISVAEVAEIPFTAFTSRKKTDHIPGLLVVRRIPELNNKDVDQPGLFDLHRFHAVFTTADPGILDTVAADKTHRQHAIIEQVNADVKASALAHMPSGVFTANSAWLVCAVMAFNLTRTAGVIAAGAMARATTATIRRKLVAVPARIARSARRLILHLPRNWRWETQWSRLCDHGRLPP, MGSDKIHHHHHHMQLTSENYYSQEANKEYMSVSGYKDFAGTYGKMPCEFYGMEKLNGRWEDEKSTALLVGSYVDSYFEGSLDQFKKDNPEIFTQKGELKANFKQAEEIIARIERDEYFMKYMSGQKQVIMTGELFGAKWKIKMDSYIPGVAIVDLKVMASITDLKWVKDIGYLDFVRYWGYDIQGAVYQEIVRQNTGEKLPFFIAGATKQTEPDIRIIHVTDNYLQEALHMVEMNMPRILRVKNGEVEPDRCELCDCCRHNRVLKKPISIMDLTAGI, MGSDKIHHHHHHMQNLHIFGEQKKTDWVIFENLEKVESKTLTEEGSAIRLNSGKYRKLKAISSVDPDVLYSTCKQFLPLNELEVLNKWEPSWGKVREDILNSKVELWNQCMHESACQYAPEVVSTKAYWKSVQQHIWFCTSSSELKEDIRTCFMLDFYITVQKEGRTKQSNLTRSWLSPINVQEEDLQELVLYTANAAMEKLDARPFPSGSYALILGPLAAPGIFHEVVGHGLEADIASIPQSAFHQRLGAMVGCEKVTIIDDPTKEGLPGSYSLDDEGTIAQQTTLIEKGRVVNYLSHLHTGHPTNGHGRVINYQHLPLVRMSNTFLLPGTDDPEEMVSDTEVGLYVKKAINGDVNMITGEFEIHVAEGYLIEKGQITSPILPTTLKGDGQKLLQSIDRVGNDFAIHSEVRGGCGKLGQSPLPVSAGSPTVRVLDWYVKGADR, MGSDKIHHHHHHMQQNTNVDPQEIAKFERMAETWWDLNGEFKPLHLLNPLRLNYIDQTAGGIFGKKVLDVGCGGGILSESMARIGAIVDGLDMGEEPLEVARLHALETGVSINYVKNTAEAHREDHREYYDVVTCMEMLEHVPDPQSVIQACCDMVKPGGFVFFSTINRNVRSFVETIIGAEYLLKMLPIGTHDHNKFIKPSELIDLVDNTELICKDALGITYNPLTGIFKYTSKVDVNYMIATQKVD, MGSDKIHHHHHHMQQVFFQETEFLNSVIDYDHKVETENLCLDIAYGTDKNFLFGCGISIASILKYNEGSRLCFHIFTDYFGDDDRKYFDALALQYKTRIKIYLINGDRLRSLPSTKNWTHAIYFRFVIADYFINKAPKVLYLDADIICQGTIEPLINFSFPDDKVAMVVTEGQADWWEKRAHSLGVAGIAKGYFNSGFLLINTAQWAAQQVSARAIAMLNEPEIIKKITHPDQDVLNMLLADKLIFADIKYNTQFSLNYQLKESFINPVTNDTIFIHYIGPTKPWHDWAWDYPVSQAFMEAKNASPWKNTALLKPNNSNQLRYSAKHMLKKHRYLKGFSNYLFYFIEKIKH, MGSDKIHHHHHHMQVVYHLGAPCTDADQLIMSLLKNRLRLAQAGIFVPVPGRYRAVIRDTARALKGQPAGKEVQEALLDAIVDDAQVDRLVLSDPRFVCINRLVVQGAQIWPMIERAATGLRALFPEAHVEFFIGMRDPATLIPALFKASRFSDFAEFTENMQPHAVAWSETLRRLQLAHPDCRITAWCNEDTPLLWGEILRELAGVGPEGELDGINDLAVSIMEEEGLKRMGQWFGQNPPKTEAQRRRALTAFLERYAKAGEIEETLNLPGWDEALMAEMSQSYDQDMEVIARLPGVTLLVP, MGSDKIHHHHHHMRDMVPRLTKSYEASSQPIASIRSSVLSVVVGALEATGVSTDHLLAQHGLSRLTLDDPYNPVSLKNYVAFFEDAARMSSQPMLGIRLGNAIKAEDLGPVGVLYTMMQTLRSAIVRFSHFFPALQGSTKLGLSVRGDATWLEYQIEDQTIWPRRQDTEFTLALICALTRSRLGRGWAPEEIHFEHSAPTNGRDMAHFFGAVIRFDQPINRMLIRTEDLDLPFASANPAAIAIIEQHLNDLIGDGVVPAFEDAVLQAIMRCMKRGEVTLELVASRLGIGPRTLQRRLAATGRTFREIVQQQRHGTATVLLKDERIALGVVAGNLGYADTATMSRAFKTWTGQSPRAYSKKNRREAR, MGSDKIHHHHHHMRDSVFKLSYFLSANEKFHIARVNITSSQDLSLHSHDYAEILWVEKGTGIHHVNGHQFRLSPGDLIMVRPKDRHTFSSSGKGIVIVNVAFPVETLDYFRQRYFEWSNLYFWTTGMFPFQMRLSRDIVKRLSSRAEEAMKYGRSNIQLDSLLLFIFRQITANEKVEDSSEIPVWLFNAIQKFNSPEFFIQGIAGFVTLCDRNIDYVNRIVKLHFHKSLTDLINEFKMQYATTQLSITSMPIKEICTNCGFRNLGHFYKIFRSVYNQTPYEYRRINQLIV, MGSDKIHHHHHHMREDIVVIGGYGQVGRAICRLLARRYAGRVYAAGRNFEKANRFSLETDGEVQPLQVDIHQPKKAFEALNQPKVVIVCIDQDHTEFARLCAKNGIDYLDITANGKFLKELGGLNRGAVKHTGVISVGLAPGITNLLVEQAVRMFEQVHQVDISILLGLGDEHGVGAMEWTFQQINQSFDVMVQNDWRQVKSFTDRKQVSFGKAIGNHSVYRFPFSDQQTLARTLHLPTVSTRLCFDSRLVTAVVATMRRLHITKLLSLPAVRKVLTTLLNVFPYGSEQYGVRVEVKGVRKDEKEEVYSLFTGENEALMTAHVASAVAFALYEHPCPKGVFHIEELFELVFIDQHISLTLKGTEFSYPLPTPKQFVQNETSICSQNHS, MGSDKIHHHHHHMREKLFWILKKYGVSDHIAKAFLEIPREEFLTKSYPLSYVYEDIVLVSYDDGEEYSTSSQPSLMALFMEWVGLDKGMRVLEIGGGTGYNAAVMSRVVGEKGLVVSVEYSRKICEIAKRNVERLGIENVIFVCGDGYYGVPEFSPYDVIFVTVGVDEVPETWFTQLKEGGRVIVPINLKLSRRQPAFLFKKKDPYLVGNYKLETRFITAGGNLGNLLERNRKLLREFPFNREILLVRSHIFVELVDLLTRRLTEIDGTFYYAGPNGVVEFLDDRMRIYGDAPEIENLLTQWESCGYRSFEYLMLHVGYNAFSHISCSI, MGSDKIHHHHHHMRFDLIDLRLFLHILETGSITHGAARANMSLPSASARLRGMEDALGMPLLERGRRGVESTPTGDTLAHHARLVLGQIERMQGELGEHQEGRKACIRLWTNTAAITEFLPAAIGLFLRDHPNVQIDLKERQSSETVKAVLSGAAEIGIISDAVEHGALQTFPFAIDKLVLVTSRDDALATCRRTTLAEVADREFIGLSADSALQAYLGERALLAGQPLSFRTHVRTFDAVCCMVDQGAGVGIVPATAAKRYRGTPGIRTIELTDSWATRQLLICMRDLNAMARPEKALVRHLAGI, MGSDKIHHHHHHMRIGVAGVGKLGEFHTNLLKQIAAEASDVEFSGVFDLNPERLQEIGKKYGVACFSTLEELAASCDAAVIATTTSSHYAIARQLLEARLHLFIEKPITATLEEADKLIRIEQEKGLTIQVGHIERFNPALLAVEPYIGEPMYIQAERLSGFSRRVTDVSVVLDLMIHDIDLVLSLIKSDIRSIAASGVKVFSNELDMATARIEFENGAIANVTASRLSRSKLRKMRFFTRNPKSYASLDFTSGKSEVFRLVPPDQLSSKNPIKNFATKKILEQFGEIQESLKEMALDYVSPDVPKINALKEELEQFIDAIRKGKPAKVTSEEGRRALMVAGKITDEIRNNTADLD, MGSDKIHHHHHHMRILALVPGGIGDQILFFPTVADLKKYYPQAQIDVVVEPRAVGAYRVCAEVDQVFPFDFKDRNSLADWGNLLGSIREREYEAVLSLGQRSLVGLFLWLTGIPKRVGYAGRGKIFLTDAVPLNREQYAGALYHDLLQGFGINTPCPNPKLTLARQDLDWATAEQQRLGLAGQGYLVLHGGSSTLAKLKGLQKVYPVEKWAIVLRSIREQRPSLPFVVVQGPDDAEFVAELRKSNLDFQVVQPPDIGKLAAIIAGADLMLCTDSAPMHLAVASGTRTIALFGPFEPAKLLPADDRFIGIKAQGVDVATIPPQEIIDRLFGR, MGSDKIHHHHHHMRILIRADGGRDIGMGHIMRTLTLARELNKYFEVIYVCKTENEDRKTSVNGKYAKGIHKILSSGFKVKIVRENNMVEDLYEIKGDILITDSYDVNEEYFKKTSEMFHKTIYIDDMCLYDFKDVDMIINQNINADNLKYDAAGNKSLLLGCRYVMLRDEFKDLGAKIIRRKVRDVMITTGGADPFLLTLKLLYYLKQENYNFHVVVGSSFDDIYVEKLKTYEELKNINFYYNANMKELMKKCDACISAAGSTLYELCSVGVPSLSITVAENQSKAAEKFDALKIIKNLGWHNELTREKVLEEINSLSNDYNRRKNVSMTSQSIIDGMGTQRIVEKILDMV
